From article PMC4705688 come the findings set out here.

For this series, the target named is His-Cmr (Mycobacterium tuberculosis H37Rv, UniProt P9WMH5 1-244). The series can be described thus: EMSA. (Mobility shift assays separate free from complexed probe on a gel.)
His-Cmr, sequence (P9WMH5 whole entry): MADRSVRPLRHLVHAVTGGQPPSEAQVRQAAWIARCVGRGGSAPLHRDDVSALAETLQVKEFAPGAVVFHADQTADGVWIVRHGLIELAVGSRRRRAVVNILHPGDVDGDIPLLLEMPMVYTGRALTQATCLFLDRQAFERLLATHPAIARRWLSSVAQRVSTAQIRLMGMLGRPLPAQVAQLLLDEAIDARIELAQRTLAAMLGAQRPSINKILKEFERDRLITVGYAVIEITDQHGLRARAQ

B1: 1C1 40 bp overlap (dsDNA)
DNA 1: GCGTGGTTCAGCTTGTCACCGGTGACACTGTGTTGGCTTC
DNA 2: GAAGCCAACACAGTGTCACCGGTGACAAGCTGAACCACGC
Turning to B1, the binding result is given as “binds”.
